Measurements: article PMC11437124 (Nature Communications, 2024)

The binders below were run against human TREM2 extracellular domain (ECD) (Homo sapiens, UniProt Q9NZC2).
Sequence of human TREM2 extracellular domain (ECD) (Q9NZC2 19-174): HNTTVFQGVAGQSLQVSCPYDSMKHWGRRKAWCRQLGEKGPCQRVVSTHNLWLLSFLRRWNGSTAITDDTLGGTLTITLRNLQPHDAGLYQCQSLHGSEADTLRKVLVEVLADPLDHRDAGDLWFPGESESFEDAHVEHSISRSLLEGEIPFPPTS

Row | Binder | binding result
1 | R18-11-01 (antibody, V domains shown) VH: AVQLVESGGGLVQPKESLKISCAASGFTFINAAIYWVRQAPGKGLEWVARIRTKPDNYATYYADSVKGRFTISRDDSKSMVYLQMHNLKTEDTAMYYCTAATTGIKFDYWGQGVMVTVSA VL: DIVMTQSPSSLAVSAGETVTIDCKSSQSLLYSGNQKTYLAWYQQKPGQSPKLLIYWASTRQSGVPDRFIGSGSGTDFTLTISSVQAEDLAIYYCQQYYDTPLTFGSGTKLEIK | binds
2 | R18-11-02 (antibody, V domains shown) VH: AVQLVESGGGLVQPKESLKISCAASGFTFSNAAMYWVRQAPGKGLEWVARIRTKPNNYATYYADSMKGRFTISRDDSKSMVYLQMGNLKTEDTAMYYCTAELITTAFDYWGQGVMVTVSS VL: DIVMTQSPSSLAVSAGETVTIDCKSSQSLLYSGNQKTYLAWYQQKPGQSPKLLIYWASTRQSGVPDRFIGSGSGTDFTLTISSVQAEDLAIYYCQQYYDTPLTFGSGTKLEIK | binds
3 | R18-11-03 (antibody, V domains shown) VH: AVQLVESGGGLVRPKESLKISCAASGFTFSNAAMYWVRQAPGKGLEWVARIRSKPNNYATHYADSVKGRFIISRDDSKGMVYLQMDNLKTEDTAKYYCTAAGGGYGFDDWGQGVMVTVSS VL: DIVMTQSPSSLAVSAGETVTIDCKSSQSLLYSGNQKTYLAWYQQKPGQSPKLLIYWASTRQSGVPDRFIGSGSGTDFTLTISSVQAEDLAIYYCQQYYDTPLTFGSGTKLEIK | binds
4 | R18-11-04 (antibody, V domains shown) VH: AVQLVESGGGLVQPKESLKISCAASGFTFSNAAMYWVRQAPGKGLEWVARIRTQPNNYATYYADSVKGRFTISRDDAKSMVYLQMDNLKTEDTAMYYCTAGTVEVTSTWWGQGVMVTVSS VL: DIVMTQSPSSLAVSAGETVTIDCKSSQSLLYSGNQKTYLAWYQQKPGQSPKLLIYWASTRQSGVPDRFIGSGSGTDFTLTISSVQAEDLAIYYCQQYYDTPLTFGSGTKLEIK | binds
5 | R18-11-05 (antibody, V domains shown) VH: AVQLVESGGGLVQPKASLKISCVASGFTFSKNAMYWVRQAPGKGLEWVARIRTKPNNYAAYYADSVKGRFTISRDDSESMVYLQMDNLKTEDTAMYYCTAGDFNSPFDFWGQGVMVTVSS VL: DIVMTQSPSSLAVSAGETVTIDCKSSQSLLYSGNQKTYLAWYQQKPGQSPKLLIYWASTRQSGVPDRFIGSGSGTDFTLTISSVQAEDLAIYYCQQYYDTPLTFGSGTKLEIK | binds
6 | R18-11-06 (antibody, V domains shown) VH: AVQLVESGGGLVQPKESLKISCAASGFTFSNAAMYWVRQAPGKGLEWVARIRTQPNNYATYYADSVKGRFTISRDDSKSVVYLQMDNLKTADTAMYYCTAGYGYNLFDYWGQGVMVTVSS VL: DIVMTQSPSSLAVSAGETVTIDCKSSQSLLYSGNQKTYLAWYQQKPGQSPKLLIYWASTRQSGVPDRFIGSGSGTDFTLTISSVQAEDLAIYYCQQYYDTPLTFGSGTKLEIK | binds
7 | R18-11-07 (antibody, V domains shown) VH: AVQLVESGGGLVQPKESLRISCAASGFTFSNAAMYWVRQAPGKGLEWVARIRTKPNSYAPYYADSVRGRFTISRDDSKSMVYLQMDNLKTEDTAMYYCTAGGNSGYSDYWGQGVMVTVSS VL: DIVMTQSPSSLAVSAGETVTIDCKSSQSLLYSGNQKTYLAWYQQKPGQSPKLLIYWASTRQSGVPDRFIGSGSGTDFTLTISSVQAEDLAIYYCQQYYDTPLTFGSGTKLEIK | binds
8 | R18-11-08 (antibody, V domains shown) VH: AVQLVESGGGLVQPKESLKISCAASGFTFSNAAMYWVRQAPGKGLEWVARIRTKPNNYATYYADSVKGRFTISRDDSKSMVYLQMDNLKTEDTAMYYCTAAYYSGPFAYWGQGTLVTVSS VL: DIVMTQSPSSLAVSAGETVTIDCKSSQSLLYSGNQKTYLAWYQQKPGQSPKLLIYWASTRQSGVPDRFIGSGSGTDFTLTISSVQAEDLAIYYCQQYYDTPLTFGSGTKLEIK | binds
9 | R18-11-10 (antibody, V domains shown) VH: AVQLVESGGGVVRPKESLRISCAASGFTFSNVAMYWVRQAPGKGLEWVARIRTKPNNYATNYADSVKGRFTISRDDSNSMVNLQMENLKTEDTAMYYCTAVGGHNWFAYWGQGTLVTVSS VL: DIVMTQSPSSLAVSAGETVTIDCKSSQSLLYSGNQKTYLAWYQQKPGQSPKLLIYWASTRQSGVPDRFIGSGSGTDFTLTISSVQAEDLAIYYCQQYYDTPLTFGSGTKLEIK | binds
10 | R18-11-11 (antibody, V domains shown) VH: AVQLVESGGGLVQPKESLKISCAASGFTFSNAAMHWVRQAPGKGLEWVARIRTRPNNYATYYADSVKGRFTISRDDSKSMVYLQMDNLKTEDTAMYYCTAGTGSSPFAYWGQGTLVTVSS VL: DIVMTQSPSSLAVSAGETVTIDCKSSQSLLYSGNQKTYLAWYQQKPGQSPKLLIYWASTRQSGVPDRFIGSGSGTDFTLTISSVQAEDLAIYYCQQYYDTPLTFGSGTKLEIK | binds
11 | R18-11-12 (antibody, V domains shown) VH: AVQLVESGGGLVQPKESVKISCAASGFTFSNAAMYWVRQAPGKGLEWIARIRSKPHNHATYYADSVKGRFTISRDDSESMVYLQMDNLKTEDTAMYYCTSDTGPNWFTYWGQGTLVTVSS VL: DIVMTQSPSSLAVSAGETVTIDCKSSQSLLYSGNQKTYLAWYQQKPGQSPKLLIYWASTRQSGVPDRFIGSGSGTDFTLTISSVQAEDLAIYYCQQYYDTPLTFGSGTKLEIK | binds
12 | R18-11-13 (antibody, V domains shown) VH: AVQLVESGGGLVQPKESLKISCAASGFTFSNVAMYWVRQAPRKGLEWVARIRTKPNNYATYYADSVKGRFTISRDDSKSMVYLQMDNLKTDDTAMYYCTAGVYYGSMDAWGQGTSVTVSS VL: DIVMTQSPSSLAVSAGETVTIDCKSSQSLLYSGNQKTYLAWYQQKPGQSPKLLIYWASTRQSGVPDRFIGSGSGTDFTLTISSVQAEDLAIYYCQQYYDTPLTFGSGTKLEIK | binds
13 | R18-12-14 (antibody, V domains shown) VH: AVQLVESGGGLVQPKESLKISCAVSGFTFTNAAMYWVRQAPGKGLEWIARIRTQPNNYATYYADSVRGRFTTSRDDSKSMVYLQMDNLKTEDTAMYYCTAGRATGTPFDYWGQGVMVTVSS VL: DIVMTQSPSSLAVSAGETVTIDCKSSQSLLYSGNQKTYLAWYQQKPGQSPKLLIYWASTRQSGVPDRFIGSGSGTDFTLTISSVQAEDLAIYYCQQYYDTPLTFGSGTKLEIK | binds
14 | R18-12-17 (antibody, V domains shown) VH: AVQLVESGGGLVKPKESLKISCAASGFTFSNAAMYWVRQAPGKGLDWVARIRTKPYNYATFYADSVKGRFTISRDDSKNMVYLQMDNLKTEDTAVYYCTTDGEPRPRFAYWGQGTLVTVSS VL: DIVMTQSPSSLAVSAGETVTIDCKSSQSLLYSGNQKTYLAWYQQKPGQSPKLLIYWASTRQSGVPDRFIGSGSGTDFTLTISSVQAEDLAIYYCQQYYDTPLTFGSGTKLEIK | binds
15 | R18-12-18 (antibody, V domains shown) VH: AVQLVESGGGLVQPKESLKISCAASGFTFRNAAMFWVRQAPGKGLEWVARIRTKPNNFATYYADSVKGRFTISRDDSKSMVYLQMDNLKTEDTAMYYCTGFYNDGAPFDYWGQGTLVTVSS VL: DIVMTQSPSSLAVSAGETVTIDCKSSQSLLYSGNQKTYLAWYQQKPGQSPKLLIYWASTRQSGVPDRFIGSGSGTDFTLTISSVQAEDLAIYYCQQYYDTPLTFGSGTKLEIK | binds
16 | R18-12-19 (antibody, V domains shown) VH: AVQLVESGGGLVQPKESLKISCAASGFTFSNAAMYWVRQAPGKGLEWVARIRTKPNNYATYYTDSVKGRFTISRDDSKSMVYLQMDNLKTEDTAMYYCTAEGSSRNWFAYWGQGTLVTVSS VL: DIVMTQSPSSLAVSAGETVTIDCKSSQSLLYSGNQKTYLAWYQQKPGQSPKLLIYWASTRQSGVPDRFIGSGSGTDFTLTISSVQAEDLAIYYCQQYYDTPLTFGSGTKLEIK | binds
17 | R18-12-20 (antibody, V domains shown) VH: AVQLVESGGGLVQPKESLKISCAASGFTLSTVAMYWVRQAPGKGLEWVARIRTKPNNYAIYYADSVKGRFTISRDDSKSMVYLQMDNLKTEDTAMYYCTAPGIIRAPFAYWGQGTLVTVSS VL: DIVMTQSPSSLAVSAGETVTIDCKSSQSLLYSGNQKTYLAWYQQKPGQSPKLLIYWASTRQSGVPDRFIGSGSGTDFTLTISSVQAEDLAIYYCQQYYDTPLTFGSGTKLEIK | binds
18 | R18-12-21 (antibody, V domains shown) VH: AVQLVESGGGLVQPKESLKLSCAASGFTFSDAAMYWVRQAPGKGLEWVARIRTKPNNYATYYADSVKGRFTISRDDSKSMVYLQMDNLKTEDTAMYYCTALFLIVAPFAYWGQGTLVTVSS VL: DIVMTQSPSSLAVSAGETVTIDCKSSQSLLYSGNQKTYLAWYQQKPGQSPKLLIYWASTRQSGVPDRFIGSGSGTDFTLTISSVQAEDLAIYYCQQYYDTPLTFGSGTKLEIK | binds
19 | R18-12-22 (antibody, V domains shown) VH: AVQLVESGGGLVQPKESLKISCAASGFTFSNAAIYWVRQAPGKGLEWVARIRTKPNNYATYYADSVKGRFTISRDDSKSMVYLQMDNLKTEDTAMYYCTAGYYSGGPFAYWGQGTLVTVSS VL: DIVMTQSPSSLAVSAGETVTIDCKSSQSLLYSGNQKTYLAWYQQKPGQSPKLLIYWASTRQSGVPDRFIGSGSGTDFTLTISSVQAEDLAIYYCQQYYDTPLTFGSGTKLEIK | binds
20 | R18-12-23 (antibody, V domains shown) VH: AVQLVESGGGLVQPKESLKISCAASAFSFSNVAMYWVRQAPGKGLEWIARIRTKPNNYATYYADSVKGRFTISREDSKSMVYLQMDNLKTEDTATYYCTADNYPGGGFRYWGQGTLVTVSS VL: DIVMTQSPSSLAVSAGETVTIDCKSSQSLLYSGNQKTYLAWYQQKPGQSPKLLIYWASTRQSGVPDRFIGSGSGTDFTLTISSVQAEDLAIYYCQQYYDTPLTFGSGTKLEIK | binds
21 | R18-12-24 (antibody, V domains shown) VH: AVQLVESGGGLVQPKESLKISCAASGFTFSNAAMYWVRQAPGKGLEWVARIRTKPNNYATYYADSVKGRFTISRDDSKSMVYLQMDNLKTEDTAMYYCTADYSSYIRFAYWGQGTLVTVSS VL: DIVMTQSPSSLAVSAGETVTIDCKSSQSLLYSGNQKTYLAWYQQKPGQSPKLLIYWASTRQSGVPDRFIGSGSGTDFTLTISSVQAEDLAIYYCQQYYDTPLTFGSGTKLEIK | binds
